Results taken from patent US20200129532A1 (SALK INSTITUTE FOR BIOLOGICAL STUDIES, published 2020).

Biological target: endogenous ARID2 (293T cells) (UniProt Q68CP9 2-1835, limits assumed)
Assay: immunoprecipitation of endogenous BAF/PBAF components in 293T cells
Description: For other immunoprecipitations, primary antibodies were incubated with lysates for 2 hr followed by Protein A magnetic beads (Life Technologies, 10001D).

Sequence of endogenous ARID2 (293T cells) (Q68CP9 2-1835 limits assumed): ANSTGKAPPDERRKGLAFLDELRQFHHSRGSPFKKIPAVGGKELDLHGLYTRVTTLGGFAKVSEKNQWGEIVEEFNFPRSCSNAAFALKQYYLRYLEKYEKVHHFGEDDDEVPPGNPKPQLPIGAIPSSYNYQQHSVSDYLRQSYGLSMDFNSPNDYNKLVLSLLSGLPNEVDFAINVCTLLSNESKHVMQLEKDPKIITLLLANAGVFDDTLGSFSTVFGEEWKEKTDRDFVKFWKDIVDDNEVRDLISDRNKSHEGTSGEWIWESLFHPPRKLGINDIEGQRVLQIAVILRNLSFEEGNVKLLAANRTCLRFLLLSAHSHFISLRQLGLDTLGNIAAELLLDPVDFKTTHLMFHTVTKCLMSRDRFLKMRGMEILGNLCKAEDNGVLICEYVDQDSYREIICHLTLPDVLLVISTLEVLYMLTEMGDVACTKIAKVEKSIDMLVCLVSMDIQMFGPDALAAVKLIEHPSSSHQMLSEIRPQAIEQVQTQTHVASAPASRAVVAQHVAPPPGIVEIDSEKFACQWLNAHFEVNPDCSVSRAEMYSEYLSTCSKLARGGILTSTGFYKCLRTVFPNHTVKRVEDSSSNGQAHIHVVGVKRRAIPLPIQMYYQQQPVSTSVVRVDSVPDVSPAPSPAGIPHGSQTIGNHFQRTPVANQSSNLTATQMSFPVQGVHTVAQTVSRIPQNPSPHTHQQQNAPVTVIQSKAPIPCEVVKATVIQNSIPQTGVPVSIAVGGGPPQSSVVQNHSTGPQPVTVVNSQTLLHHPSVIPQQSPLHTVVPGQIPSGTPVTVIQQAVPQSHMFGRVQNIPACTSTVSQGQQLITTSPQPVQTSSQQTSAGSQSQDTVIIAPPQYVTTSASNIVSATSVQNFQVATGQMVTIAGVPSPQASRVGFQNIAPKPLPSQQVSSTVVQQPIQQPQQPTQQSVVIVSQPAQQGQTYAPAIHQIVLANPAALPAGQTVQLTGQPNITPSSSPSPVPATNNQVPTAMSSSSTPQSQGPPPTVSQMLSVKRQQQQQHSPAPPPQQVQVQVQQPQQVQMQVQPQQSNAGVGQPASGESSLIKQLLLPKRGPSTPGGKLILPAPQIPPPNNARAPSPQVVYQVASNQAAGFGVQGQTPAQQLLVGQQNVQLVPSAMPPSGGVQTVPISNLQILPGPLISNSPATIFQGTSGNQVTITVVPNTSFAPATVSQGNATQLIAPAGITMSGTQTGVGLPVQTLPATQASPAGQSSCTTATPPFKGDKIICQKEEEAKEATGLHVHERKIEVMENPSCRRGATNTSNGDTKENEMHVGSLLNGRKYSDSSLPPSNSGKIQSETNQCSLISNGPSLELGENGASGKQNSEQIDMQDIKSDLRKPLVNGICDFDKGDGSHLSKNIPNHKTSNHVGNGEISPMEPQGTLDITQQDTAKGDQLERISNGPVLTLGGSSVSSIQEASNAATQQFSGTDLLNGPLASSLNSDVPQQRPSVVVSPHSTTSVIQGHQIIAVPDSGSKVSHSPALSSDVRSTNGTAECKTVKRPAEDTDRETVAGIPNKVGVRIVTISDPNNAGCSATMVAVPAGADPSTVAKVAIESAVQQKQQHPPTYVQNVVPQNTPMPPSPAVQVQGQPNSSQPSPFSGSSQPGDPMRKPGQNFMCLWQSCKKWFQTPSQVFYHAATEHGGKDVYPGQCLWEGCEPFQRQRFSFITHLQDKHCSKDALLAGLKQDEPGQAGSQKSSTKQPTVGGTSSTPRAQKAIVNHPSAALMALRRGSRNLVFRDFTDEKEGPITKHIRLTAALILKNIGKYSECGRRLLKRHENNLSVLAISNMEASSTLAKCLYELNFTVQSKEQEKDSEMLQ

B1: endogenous bromodomain-containing protein 9 (BRD9) (other, human, UniProt Q9H8M2 1-597, looked up)
chain: MGKKHKKHKAEWRSSYEDYADKPLEKPLKLVLKVGGSEVTELSGSGHDSSYYDDRSDHERERHKEKKKKKKKKSEKEKHLDDEERRKRKEEKKRKREREHCDTEGEADDFDPGKKVEVEPPPDRPVRACRTQPAENESTPIQQLLEHFLRQLQRKDPHGFFAFPVTDAIAPGYSMIIKHPMDFGTMKDKIVANEYKSVTEFKADFKLMCDNAMTYNRPDTVYYKLAKKILHAGFKMMSKQAALLGNEDTAVEEPVPEVVPVQVETAKKSKKPSREVISCMFEPEGNACSLTDSTAEEHVLALVEHAADEARDRINRFLPGGKMGYLKRNGDGSLLYSVVNTAEPDADEEETHPVDLSSLSSKLLPGFTTLGFKDERRNKVTFLSSATTALSMQNNSVFGDLKSDEMELLYSAYGDETGVQCALSLQEFVKDAGSYSKKVVDDLLDQITGGDHSRTLFQLKQRRNVPMKPPDEAKVGDTLGDSSSSVLEFMSMKSYPDVSVDISMLSSLGKVKKELDPDDSHLNLDETTKLLQDLHEAQAERGGSRPSSNLSSLSNASERDQHHLGSPSRLSVGEQPDVTHDPYEFLQSPEPAASAKT
notes: Endogenous protein in cell lysates; also called bromodomain-containing factor 9
- binding result: no binding
